# Experimental data as given in patent US20250382363A1 (NUMAB THERAPEUTICS, published 2025).
# Where a chain is given by its changes, count along the chain named. Names and notes keep the numbering of the source.
# B1: PRO3311 (scFv 37-20-B03-sc09.1_(L12A, T101Q, L144A, T146Q)) (scFv)
# scFv: DIQMTQSPASLSASVGDRVTITCQASQSIGTYLAWYQQKPGKPPKLLIYRAFILASGVPSRFSGSGSGTDFTLTISSLQPEDFATYYCQSNFYSDSTTIGPNAFGTGTKVTVLGGGGGSGGGGSGGGGSGGGGSEVQLVESGGGAVQPGGSLRLSCAASGFSFNSDYWIYWVRQAPGKGLEWIASIYGGSSGNTQYASWAQGRFTISRDNSKNTVYLQMNSLRAEDQAVYFCARGYVDYGGATDLWGQGTAVQVSS
# notes: PRO2230 variant; VH substitutions, AHo numbering; also called PRO2230 L12A-T101Q-L144A-T146Q
# B2: PRO3317 (scFv 37-20-B03-sc09.1_(T101Q)) (scFv)
# scFv: B1 scFv with A145L, A251L, Q253T
# notes: PRO2230 variant; VH substitution, AHo numbering; also called PRO2230 T101Q
# B3: PRO3340 (scFv 37-20-B03-sc09.1_(T101S, T146K)) (scFv)
# scFv: B1 scFv with A145L, Q227S, A251L, Q253K
# notes: PRO2230 variant; VH substitutions, AHo numbering; also called PRO2230 T101S-T146K
# B4: PRO3342 (scFv 37-20-B03-sc09.1_(T101K, T146D)) (scFv)
# scFv: B1 scFv with A145L, Q227K, A251L, Q253D
# notes: PRO2230 variant; VH substitutions, AHo numbering; also called PRO2230 T101K-T146D
# B5: PRO3312 (scFv 37-20-B03-sc09.1_(T101R, T146Q)) (scFv)
# scFv: B1 scFv with A145L, Q227R, A251L
# notes: PRO2230 variant; VH substitutions, AHo numbering; also called PRO2230 T101R-T146Q
# B6: PRO3339 (scFv 37-20-B03-sc09.1_(T101N, T146Q)) (scFv)
# scFv: B1 scFv with A145L, Q227N, A251L
# notes: PRO2230 variant; VH substitutions, AHo numbering; also called PRO2230 T101N-T146Q
# B7: PRO3338 (scFv 37-20-B03-sc09.1_(T101K, T146Q)) (scFv)
# scFv: B1 scFv with A145L, Q227K, A251L
# notes: PRO2230 variant; VH substitutions, AHo numbering; also called PRO2230 T101K-T146Q
# B8: PRO3313 (scFv 37-20-B03-sc09.1_(T101S, T146R)) (scFv)
# scFv: B1 scFv with A145L, Q227S, A251L, Q253R
# notes: PRO2230 variant; VH substitutions, AHo numbering; also called PRO2230 T101S-T146R
# B9: PRO3343 (scFv 37-20-B03-sc09.1_(T101R, T146E)) (scFv)
# scFv: B1 scFv with A145L, Q227R, A251L, Q253E
# notes: PRO2230 variant; VH substitutions, AHo numbering; also called PRO2230 T101R-T146E
# B10: PRO3341 (scFv 37-20-B03-sc09.1_(T101S, T146S)) (scFv)
# scFv: B1 scFv with A145L, Q227S, A251L, Q253S
# notes: PRO2230 variant; VH substitutions, AHo numbering; also called PRO2230 T101S-T146S
# B11: PRO3314 (scFv 37-20-B03-sc09.1_(T101Q, T146Q)) (scFv)
# scFv: B1 scFv with A145L, A251L
# notes: PRO2230 variant; VH substitutions, AHo numbering; also called PRO2230 T101Q-T146Q
# B12: PRO1922 (scFv 54-21-H03-sc01) (scFv)
# scFv: DIQMTQSPSSLSASVGDRVTITCQASESIYSSLAWYQQKPGKAPKLLIYLASTLASGVPSRFSGSGSGTDFTLTISSLQPEDFATYYCQSTDYTTSTHRNSFGTGTKVTVLGGGGGSGGGGSGGGGSGGGGSEVQLVESGGGLVQPGGSLRLSCAASGFSFSTTYYMCWVRQAPGKGLEWIGCTNTASSVRTYYATWAKGRFTISRDNSKNTVYLQMNSLRAEDTAVYYCARDMGFADYALNLWGQGTLVTVSS
# notes: also called PRO1922 wt; a-MSLN wt
# B13: PRO2944 (scFv 54-21-H03-sc01_(T146Q)) (scFv)
# scFv: B12 scFv with T251Q
# notes: PRO1922 variant; VH substitution, AHo numbering; also called PRO1922 T146Q
# B14: PRO2942 (scFv 54-21-H03-sc01_(T146R)) (scFv)
# scFv: B12 scFv with T251R
# notes: PRO1922 variant; VH substitution, AHo numbering; also called PRO1922 T146R
# B15: PRO2941 (scFv 54-21-H03-sc01_(T146K)) (scFv)
# scFv: B12 scFv with T251K
# notes: PRO1922 variant; VH substitution, AHo numbering; also called PRO1922 T146K
# B16: PRO2990 (scFv 54-21-H03-sc01_(L12S, V103T, L144T)) (scFv)
# scFv: B12 scFv with L143S, V227T, L249T
# notes: VH substitutions, AHo numbering; also called PRO1922-L12S-V103T-L144T
# B17: PRO2937 (scFv 54-21-H03-sc01_(T101S, L144A, T146Q)) (scFv)
# scFv: B12 scFv with T225S, L249A, T251Q
# notes: PRO1922 variant; VH substitutions, AHo numbering; also called PRO1922 T101S-L144A-T146Q
# B18: PRO2991 (scFv 54-21-H03-sc01_(T101A)) (scFv)
# scFv: B12 scFv with T225A
# notes: PRO1922 variant; VH substitution, AHo numbering; also called PRO1922 T101A
# B19: PRO2993 (scFv 54-21-H03-sc01_(P15A)) (scFv)
# scFv: B12 scFv with P146A
# notes: PRO1922 variant; VH substitution, AHo numbering; also called PRO1922 P15A
# B20: PRO2946 (scFv 54-21-H03-sc01_(T101S)) (scFv)
# scFv: B12 scFv with T225S
# notes: PRO1922 variant; VH substitution, AHo numbering; also called PRO1922 T101S
# B21: PRO2918 (scFv 54-21-H03-sc01_(L12R, V103T, L144Q)) (scFv)
# scFv: B12 scFv with L143R, V227T, L249Q
# notes: VH substitutions, AHo numbering; also called PRO1922-L12R-V103T-L144Q
# B22: PRO2930 (scFv 54-21-H03-sc01_(L144K, T146E, S148K)) (scFv)
# scFv: B12 scFv with L249K, T251E, S253K
# notes: PRO1922 variant; VH substitutions, AHo numbering; also called PRO1922 L144K-T146E-S148K
# B23: PRO2992 (scFv 54-21-H03-sc01_(T146A)) (scFv)
# scFv: B12 scFv with T251A
# notes: PRO1922 variant; VH substitution, AHo numbering; also called PRO1922 T146A
# B24: PRO2931 (scFv 54-21-H03-sc01_(L144K, S148L)) (scFv)
# scFv: B12 scFv with L249K, S253L
# notes: PRO1922 variant; VH substitutions, AHo numbering; also called PRO1922 L144K-S148L
# B25: PRO2936 (scFv 54-21-H03-sc01_(T101S, T146Q)) (scFv)
# scFv: B12 scFv with T225S, T251Q
# notes: PRO1922 variant; VH substitutions, AHo numbering; also called PRO1922 T101S-T146Q
# B26: PRO2938 (scFv 54-21-H03-sc01_(L12A, T101S, L144A, T146Q)) (scFv)
# scFv: B12 scFv with L143A, T225S, L249A, T251Q
# notes: PRO1922 variant; VH substitutions, AHo numbering; also called PRO1922 L12A-T101S-L144A-T146Q
# B27: PRO2945 (scFv 54-21-H03-sc01_(T101R)) (scFv)
# scFv: B12 scFv with T225R
# notes: PRO1922 variant; VH substitution, AHo numbering; also called PRO1922 T101R
# B28: PRO2932 (scFv 54-21-H03-sc01_(L144A, S148N)) (scFv)
# scFv: B12 scFv with L249A, S253N
# notes: PRO1922 variant; VH substitutions, AHo numbering; also called PRO1922 L144A-S148N
# B29: PRO2943 (scFv 54-21-H03-sc01_(T146E)) (scFv)
# scFv: B12 scFv with T251E
# notes: PRO1922 variant; VH substitution, AHo numbering; also called PRO1922 T146E
# Biological target: pre-existing anti-drug antibodies (ADA) present in human sera
# Assay: pre-existing ADA ELISA, scFv coated, human sera unspiked vs spiked
Mean No of serum samples >30% inhibition (30% CCP) with SCP (serum samples),No of serum samples >30% inhibition (30% CCP) without SCP (serum samples),Binder
7,10,B1
1,7,B2
0,2,B3
0,1,B4
1,2,B5
0,0,B6
0,0,B7
1,5,B8
0,0,B9
0,4,B10
1,4,B11
8,16,B12
3,3,B13
1,6,B14
0,0,B15
4,5,B16
0,5,B17
0,0,B18
2,3,B19
6,9,B20
3,5,B21
0,0,B22
3,4,B23
1,6,B24
1,4,B25
0,0,B26
0,0,B27
1,5,B28
2,4,B29

# Biological target: T1, human a-Mesothelin (Acro Biosystems; MSN_H5223) (human, UniProt Q13421 296-580, limits assumed)
# T1 construct: Bought protein immobilised on the SPR chip; Printed as 'a-Mesothelin' but used as the antigen for the anti-MSLN scFvs; also called Human MSLN; MSLN
# Assay: SPR, mesothelin immobilised, scFv analyte, 1:1 fit
# Experimental: (§1) The mutation variants were then injected at concentrations of 10 nM, 2 nM and 0.4 nM over the ligand-immobilized and reference spots. The wild type variants were used as a control, while an empty spot was used as reference.
# (§2) After each cycle with analyte, the surface was regenerated with a 3M MgCl₂ solution, thereby allowing the next analyte cycle to have only free ligand available. Binding affinity KD was globally calculated by the Bruker SPR software based on the binding association (kₒₙ) and dissociation (Koff) rate, by fitting a 1:1 Langmuir model to the curves obtained by the cycles with the three different concentrations of the analyte.
# T1 sequence (Q13421 other isoform, or with tags, fused parts or gaps limits assumed): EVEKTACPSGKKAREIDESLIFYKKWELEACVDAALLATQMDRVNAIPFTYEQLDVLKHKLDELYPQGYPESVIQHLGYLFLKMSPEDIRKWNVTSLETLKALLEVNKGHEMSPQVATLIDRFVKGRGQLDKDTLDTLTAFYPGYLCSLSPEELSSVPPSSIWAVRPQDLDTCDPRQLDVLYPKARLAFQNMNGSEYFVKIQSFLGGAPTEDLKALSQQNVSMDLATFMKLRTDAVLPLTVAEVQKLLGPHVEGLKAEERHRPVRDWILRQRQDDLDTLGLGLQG
Kd [nM],n-fold to wt [fold],Binder
1.8,1,B12
1.8,1,B13
1.3,0.7,B14
1.9,1.1,B15
1.5,0.8,B16
1.9,1.1,B17
2.9,1.6,B18
0.82,0.5,B19
3.2,1.8,B20
2.4,1.3,B21
1.3,0.7,B22
1.7,0.9,B23
1.4,0.8,B24
0.66,0.4,B25
1.6,0.9,B26
3,1.7,B27
2.1,1.2,B28
3.3,1.8,B29

# Biological target: T2, human a-PD-L1 Fc (Sino Biological, 10084-H02H, LC11NO2402) (human, UniProt Q9NZQ7 19-239)
# T2 construct: Bought Fc fusion immobilised on the SPR chip; Printed as 'a-PD-L1 Fc' but used as the antigen (ligand) for the anti-PD-L1 scFvs; also called Human PD-L1; not shown: Fc part
# Assay: SPR, PD-L1 Fc immobilised, scFv analyte, 1:1 fit
# Experimental: as §1, §2
# T2 sequence (Q9NZQ7 19-239 limits assumed): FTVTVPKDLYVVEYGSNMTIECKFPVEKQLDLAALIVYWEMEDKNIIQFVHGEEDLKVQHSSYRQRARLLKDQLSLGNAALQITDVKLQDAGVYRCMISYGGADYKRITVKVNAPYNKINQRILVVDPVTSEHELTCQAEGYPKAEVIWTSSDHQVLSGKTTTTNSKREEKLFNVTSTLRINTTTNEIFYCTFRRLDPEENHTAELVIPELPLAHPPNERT
Kd [nM],n-fold to wt [fold],Binder
0.048,1,B1
0.042,0.9,B2
0.056,1.1,B3
0.038,0.8,B4
0.041,0.8,B5
0.035,0.7,B6
0.021,0.4,B7
0.014,0.3,B8
0.029,0.6,B9
0.051,1,B10
0.027,0.6,B11
